Here are results for 12 molecules from patent US20160083436A1 (Janssen / Centocor, published 2016).

Ends that are not written are not given here.

Test [1] addresses T1, human serum albumin (human, UniProt P02768 25-609).
T1 construct: Bought from Sigma (A4327); also called HSA
As to the kind of experiment: SPR (ProteOn XPR-36), albumin immobilized, ABDCon as analyte.
Protocol: (§1) Each serum albumin was directly immobilized on a ligand channel in the vertical orientation of a GLC chip via standard amine coupling at 2.1 μg/mL at pH 5.0 to obtain surfaces with ligand densities of 500-1000 resonance units. […] The dissociation phases for all concentrations were monitored for two hours at a flow rate of 100 μL/min using PBST (PBS, 0.005% Tween20) as running buffer. A sixth sample (buffer only) was injected to monitor the baseline stability. The surfaces were regenerated using 1 short pulse (18 μL) of 0.8% phosphoric acid.
(§2) The raw response data were first processed by subtracting the buffer only responses and the non-specific binding between the analytes and the chip. Processed data of all five concentrations were globally fit to a 1:1 simple langmuir binding model for each ligand surface.

Test [2] has as its target T2, Rhesus serum albumin (Rhesus, UniProt Q28522 17-600, limits assumed).
T2 construct: Bought from Sigma (A4297)
The test is described as above.
Protocol: as §1, §2

The target in test [3] is T3, murine serum albumin (murine, UniProt P07724 25-608).
T3 construct: Bought from Sigma (A3559); also called mouse serum albumin; Mouse
The description is as above.
Protocol: as §1, §2

Test [4] concerns the target T2, Rhesus serum albumin. Description: SPR. On the technique in general: Surface plasmon resonance follows binding to a sensor surface in real time, without labels.
The target of test [5] is T3, murine serum albumin. As to the kind of experiment: SPR.
Test [6] has as its target T3, murine serum albumin. As to the kind of experiment: KD column of the mouse PK table; method and albumin species not stated there.
The target of test [7] is T1, human serum albumin. Description: SPR, same methods as Example 2.
Protocol: as §1, §2
The target in test [8] is T3, murine serum albumin. Description: SPR, same methods as Example 2.
Protocol: as §1, §2

T3 sequence (P07724 25-608 limits assumed): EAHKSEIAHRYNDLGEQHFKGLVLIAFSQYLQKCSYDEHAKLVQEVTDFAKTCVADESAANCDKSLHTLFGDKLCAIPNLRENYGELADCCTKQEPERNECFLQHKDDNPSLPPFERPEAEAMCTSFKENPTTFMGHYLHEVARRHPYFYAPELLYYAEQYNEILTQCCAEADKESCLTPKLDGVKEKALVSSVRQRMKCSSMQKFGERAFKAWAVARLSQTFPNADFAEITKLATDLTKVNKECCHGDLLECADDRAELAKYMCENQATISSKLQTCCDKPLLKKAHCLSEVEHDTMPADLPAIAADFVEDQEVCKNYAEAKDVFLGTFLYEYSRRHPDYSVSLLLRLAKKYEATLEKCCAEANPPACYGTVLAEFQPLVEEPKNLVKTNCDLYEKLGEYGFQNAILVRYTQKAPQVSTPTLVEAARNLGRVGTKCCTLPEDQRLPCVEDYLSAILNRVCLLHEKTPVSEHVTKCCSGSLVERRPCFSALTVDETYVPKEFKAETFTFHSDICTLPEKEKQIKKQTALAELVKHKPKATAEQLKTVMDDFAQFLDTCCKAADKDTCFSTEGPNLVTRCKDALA
T2 sequence (Q28522 17-600 limits assumed): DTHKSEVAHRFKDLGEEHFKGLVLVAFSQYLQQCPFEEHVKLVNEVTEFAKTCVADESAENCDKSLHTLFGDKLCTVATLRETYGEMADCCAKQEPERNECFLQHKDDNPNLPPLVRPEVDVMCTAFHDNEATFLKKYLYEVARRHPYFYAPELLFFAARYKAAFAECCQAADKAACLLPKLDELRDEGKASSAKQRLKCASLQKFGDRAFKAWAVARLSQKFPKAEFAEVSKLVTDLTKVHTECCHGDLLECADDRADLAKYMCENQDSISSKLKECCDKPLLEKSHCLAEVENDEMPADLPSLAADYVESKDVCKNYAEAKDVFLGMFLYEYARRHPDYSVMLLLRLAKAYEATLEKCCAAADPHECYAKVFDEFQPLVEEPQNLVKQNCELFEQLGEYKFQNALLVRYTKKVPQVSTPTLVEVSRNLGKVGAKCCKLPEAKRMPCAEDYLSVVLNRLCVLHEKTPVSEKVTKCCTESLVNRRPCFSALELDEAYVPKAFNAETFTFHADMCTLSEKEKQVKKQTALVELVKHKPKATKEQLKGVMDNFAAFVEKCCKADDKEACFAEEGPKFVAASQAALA

B1: ABDCon (non-natural albumin binding domain consensus) (designed binder)
chain: LKEAKEKAIEELKKAGITSDYYFDLINKAKTVEGVNALKDEILKA
modifications: not fully specified (N-terminus)
notes: Expressed in E. coli with an N-terminal 8-His tag; measured mass 6383 Da; not shown: N-terminal 8-His tag
B1: in the test with human serum albumin [1], the Kd (commonly the constant that tells how readily two partners part at equilibrium) worked out at 0.0748 nM; the dissociation rate constant (koff) (in general, the first-order rate constant of dissociation) worked out at 3.02e-05 s⁻¹; the on-rate (kon) (commonly the rate constant with which the complex forms) worked out at 404000 M⁻¹ s⁻¹. Besides, in the test with Rhesus serum albumin [2], the Kd was determined as 0.0601 nM, the dissociation rate constant (koff) worked out at 6.78e-05 s⁻¹ and the kon is 1.13e+06 M⁻¹ s⁻¹. In the test with murine serum albumin [3], this molecule had a dissociation constant (Kd) of 3.22 nM, a dissociation rate constant (koff) of 0.000776 s⁻¹ and a kon of 241000 M⁻¹ s⁻¹.

B2: ABDCon4 (designed binder)
chain: LKEAKEKAIEELKKAGITSDYAFDLINKAKTVEGVNALKDEILKA
modifications: not fully specified
notes: Expressed and purified as described for ABDCon; also called ABDCon Y22A; not shown: N-terminal 8-His tag as for ABDCon
B2: the equilibrium dissociation constant (Kd) is 43.7 nM with Rhesus serum albumin [4] and 571 nM with murine serum albumin [5].

B3: ABDCon10 (designed binder)
chain: LKEAKEKAIEELKKAGITSDYYFDLINKAKTVEGVNVLKDEILKA
modifications: not fully specified
notes: Expressed and purified as described for ABDCon; also called ABDCon A37V; not shown: N-terminal 8-His tag as for ABDCon
As to B3, the equilibrium dissociation constant (Kd) with Rhesus serum albumin [4] is 1.3 nM; with murine serum albumin [5], 37.8 nM.

B4: ABDCon6 (designed binder)
chain: LKEAKEKAIEELKKAGITSDYVFDLINKAKTVEGVNALKDEILKA
modifications: not fully specified
notes: Expressed and purified as described for ABDCon; also called ABDCon Y22V; not shown: N-terminal 8-His tag as for ABDCon
Take B4: the Kd with Rhesus serum albumin [4] came out at 8.4 nM; with murine serum albumin [5] it was 190 nM.

B5: ABDCon7 (designed binder)
chain: LKEAKEKAIEELKKAGITSDYYFDLINKAKTVEGVNALKDQILKA
modifications: not fully specified
notes: Expressed and purified as described for ABDCon; also called ABDCon E41Q; not shown: N-terminal 8-His tag as for ABDCon
B5: the equilibrium dissociation constant (Kd) is 0.5 nM with Rhesus serum albumin [4] and 20.6 nM with murine serum albumin [5].

B6: ABDCon9 (designed binder)
chain: LKEAKEKAIEELKKAGITSDYYFDLINKAKAVEGVNALKDEILKA
modifications: not fully specified
notes: Expressed and purified as described for ABDCon; also called ABDCon T31A; not shown: N-terminal 8-His tag as for ABDCon
Regarding B6, the Kd amounted to 206 nM in the test with Rhesus serum albumin [4] and 551 nM in the test with murine serum albumin [5].

B7: ABDCon3 (designed binder)
chain: LKEAKEKAIEELKKAGITSDKYFDLINKAKTVEGVNALKDEILKA
modifications: not fully specified
notes: Expressed and purified as described for ABDCon; also called ABDCon Y21K; not shown: N-terminal 8-His tag as for ABDCon
Take B7: the Kd with Rhesus serum albumin [4] was found to be 5.1 nM; with murine serum albumin [5], 103 nM.

B8: ABDCon2 (designed binder)
chain: LKEAKEKAIEELKKAGITSDAYFDLINKAKTVEGVNALKDEILKA
modifications: not fully specified
notes: Expressed and purified as described for ABDCon; also called ABDCon Y21A; not shown: N-terminal 8-His tag as for ABDCon
In turn, B8 registered a Kd with Rhesus serum albumin [4] of 17.5 nM.

B9: ABDCon5 (designed binder)
chain: LKEAKEKAIEELKKAGITSDYSFDLINKAKTVEGVNALKDEILKA
modifications: not fully specified
notes: Expressed and purified as described for ABDCon; also called ABDCon Y22S; not shown: N-terminal 8-His tag as for ABDCon
In the case of B9, the Kd came out at 104 nM in the test with Rhesus serum albumin [4] and 1650 nM in the test with murine serum albumin [5].

B10: ABDCon8 (designed binder)
chain: LKEAKEKAIEELKKAGITSDYYFDLINKADTVEGVNALKDEILKA
modifications: not fully specified
notes: Expressed and purified as described for ABDCon; also called ABDCon K30D; not shown: N-terminal 8-His tag as for ABDCon
Consider B10, for which the Kd with Rhesus serum albumin [4] came out at 65 nM; with murine serum albumin [5], 1000 nM.

B11: Tencon25-ABDCon fusion protein (designed binder)
chain: MLPAPKNLVVSEVTEDSARLSWTAPDAAFDSFLIQYQESEKVGEAIVLTVPGSERSYDLTGLKPGTEYTVSIYGVKGGHRSNPLSAIFTTGGGGSGGGGSLKEAKEKAIEELKKAGITSDYYFDLINKAKTVEGVNALKDEILKA
notes: not shown: C-terminal poly-histidine tag
In the test with murine serum albumin [6], B11 had a Kd of 1.86 nM.

B12: ABDCon12 (designed binder)
chain: TIDEWLLKEAKEKAIEELKKAGITSDYYFDLINKAKTVEGVNALKDEILKA
notes: also called ABDCon with N-terminal TIDEWL extension; not shown: N-terminal poly histidine tag
Consider B12, for which the Kd with human serum albumin [7] was found to be 0.7 nM; with murine serum albumin [8], 8.2 nM.
